Source: publication PMC5963734 (Neuron, 2018)
No end group written: not given here.

Target: full length calmodulin (recombinant, Xenopus cDNA), used with Ca2+ (Xenopus, UniProt P0DP33 1-149)
Assay: fluorescence polarisation

fluorescein-MDCLCIVTTKKYR (cysteine pairing not given here) [fluorescein-labeled PSD-95 peptide 1-13]
binding result: binds
